Assay results from FireProtDB (doi:10.1021/bi00009a043).
Several values for one entry are separate records, joined by “and”; a condition that tells them apart may be missing. Identical values can stand only once.

Conditions: Danio rerio; pH 8; Thermal; DSC; Tris 20 mM; KCl 0.6 M; transition: 3; reversible: no

Tropomyosin alpha-1 chain wild type, P13104, sequence (P13104 whole entry): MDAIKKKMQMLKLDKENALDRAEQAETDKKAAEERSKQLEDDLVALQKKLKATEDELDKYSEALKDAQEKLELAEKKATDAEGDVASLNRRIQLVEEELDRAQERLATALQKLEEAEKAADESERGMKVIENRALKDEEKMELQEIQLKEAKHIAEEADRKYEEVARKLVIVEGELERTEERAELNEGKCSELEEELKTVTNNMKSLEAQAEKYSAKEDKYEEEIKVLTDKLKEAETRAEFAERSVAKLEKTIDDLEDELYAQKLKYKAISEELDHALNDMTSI

Tropomyosin alpha-1 chain wild type, P13104
unfolding enthalpy (van 't Hoff): 118 kcal/mol and 124 kcal/mol and 151 kcal/mol
